Measurements taken from patent US20240010684A1 (Bayer, published 2024).
Values belong to the binder of their own block, whether it stands above or below them. *1 amine or outer side, *2 acyl side, *3 side chain or, on linkers, in order; H or OH if unused. Bridges are numbered along the chain shown (N, C = ends). Where no end group is shown, it is not given here. [ ]: non-standard residue; d: D form. Oic = O=C(O)[C@@H]1C[C@@H]2CCCC[C@@H]2N1; Adipoyl = O=C(CCCCC(=O)[*:2])[*:1]; Trx = NC[C@H]1CC[C@H](C(=O)O)CC1; tBuAla = CC(C)(C)C[C@H](N)C(=O)O; Pen = CC(C)(S)[C@H](N)C(=O)O; 4Amb = NCc1ccc(C(=O)O)cc1; NMeC = CN[C@@H](CS)C(=O)O; Orn = NCCC[C@H](N)C(=O)O; Dab = NCC[C@H](N)C(=O)O; Abu = CC[C@H](N)C(=O)O; Dap = NC[C@H](N)C(=O)O; PEG2 = NCCOCCOCCC(=O)O; Ahx = NCCCCCC(=O)O; GABA = NCCCC(=O)O; Sar = CNCC(=O)O

Tests used:
Test in all cases: cell-based or functional assay
[1] = target: recombinant human MASP2 (amino acids 297-686, C-terminal His Tag) (human, UniProt O00187 297-686)
[2] = target: T1, recombinant human MASP1 (amino acids 297-699, C-terminal His Tag) (human, UniProt P48740 297-699)
T1 sequence: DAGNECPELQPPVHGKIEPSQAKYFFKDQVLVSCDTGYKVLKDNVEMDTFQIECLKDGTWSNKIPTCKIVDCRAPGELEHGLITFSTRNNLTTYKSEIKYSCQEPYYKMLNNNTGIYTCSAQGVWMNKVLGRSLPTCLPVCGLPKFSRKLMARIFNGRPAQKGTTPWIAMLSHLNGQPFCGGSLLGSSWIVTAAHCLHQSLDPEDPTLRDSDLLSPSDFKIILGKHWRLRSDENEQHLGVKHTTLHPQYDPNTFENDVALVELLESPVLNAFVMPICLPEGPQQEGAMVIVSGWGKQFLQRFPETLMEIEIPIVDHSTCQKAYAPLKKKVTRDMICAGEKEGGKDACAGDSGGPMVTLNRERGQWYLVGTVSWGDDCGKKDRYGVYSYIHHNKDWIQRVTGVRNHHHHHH

[3] = target: T2, recombinant rat MASP1 (amino acids 302-704, C-terminal His Tag) (rat, UniProt Q8CHN8 302-704)
T2 sequence: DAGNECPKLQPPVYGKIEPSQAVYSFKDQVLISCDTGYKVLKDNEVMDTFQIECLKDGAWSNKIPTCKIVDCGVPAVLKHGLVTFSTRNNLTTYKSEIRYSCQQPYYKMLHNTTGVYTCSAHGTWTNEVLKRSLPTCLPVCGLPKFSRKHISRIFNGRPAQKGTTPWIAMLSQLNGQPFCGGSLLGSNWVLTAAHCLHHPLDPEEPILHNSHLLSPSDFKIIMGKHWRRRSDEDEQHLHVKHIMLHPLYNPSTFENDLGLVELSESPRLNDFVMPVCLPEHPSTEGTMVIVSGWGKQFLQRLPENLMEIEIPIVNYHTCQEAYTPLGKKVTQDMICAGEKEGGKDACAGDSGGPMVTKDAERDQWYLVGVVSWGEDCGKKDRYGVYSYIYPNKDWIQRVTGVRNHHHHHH

[4] = target: recombinant rat MASP2 (amino acids 296-685, C-terminal His Tag) (rat, UniProt Q9JJS8 296-685)
Chain of recombinant rat MASP2 (amino acids 296-685, C-terminal His Tag) (Q9JJS8 other isoform, or with tags, fused parts or gaps limits assumed): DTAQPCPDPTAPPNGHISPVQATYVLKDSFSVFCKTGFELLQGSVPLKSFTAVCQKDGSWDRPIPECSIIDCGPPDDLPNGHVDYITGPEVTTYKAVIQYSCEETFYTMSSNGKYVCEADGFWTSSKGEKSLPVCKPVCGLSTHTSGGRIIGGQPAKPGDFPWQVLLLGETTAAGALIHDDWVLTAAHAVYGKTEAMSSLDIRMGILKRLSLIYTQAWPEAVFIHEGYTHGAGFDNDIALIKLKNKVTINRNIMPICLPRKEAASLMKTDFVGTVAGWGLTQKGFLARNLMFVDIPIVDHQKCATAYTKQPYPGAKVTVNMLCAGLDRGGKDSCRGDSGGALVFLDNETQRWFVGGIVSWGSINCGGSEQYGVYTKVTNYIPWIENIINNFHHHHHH

Chain of recombinant human MASP2 (amino acids 297-686, C-terminal His Tag) (O00187 other isoform, or with tags, fused parts or gaps limits assumed): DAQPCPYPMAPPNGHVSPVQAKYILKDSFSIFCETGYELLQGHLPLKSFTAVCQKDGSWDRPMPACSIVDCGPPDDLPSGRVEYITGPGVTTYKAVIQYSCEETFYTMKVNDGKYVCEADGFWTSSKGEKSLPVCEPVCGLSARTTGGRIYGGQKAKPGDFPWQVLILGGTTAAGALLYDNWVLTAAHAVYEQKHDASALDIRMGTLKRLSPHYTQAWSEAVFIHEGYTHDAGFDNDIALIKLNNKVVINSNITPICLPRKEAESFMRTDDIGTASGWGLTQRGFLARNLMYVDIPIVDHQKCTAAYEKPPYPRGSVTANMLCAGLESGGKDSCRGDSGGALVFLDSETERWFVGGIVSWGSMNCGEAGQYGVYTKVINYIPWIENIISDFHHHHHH

- rat MASP1 IC50 [3]: 157 nM
- rat MASP2 IC50 [4]: 13 nM
- human MASP2 IC50 [1]: 12 nM
- human MASP1 IC50 [2]: 9.4 nM
Binder: cyclo([Ahx][Sar]ICSRS[tBuAla]PPI[Pen]I) (disulfide 4-12; also: TFA salt) [Example 64: (Ahx)**-((N-Me)G)-IC+SRS-((tBu)A)-PPI-(Pen)+-I**]

- rat MASP1 IC50 [3]: 30.8 nM
- rat MASP2 IC50 [4]: 2.97 nM
- human MASP2 IC50 [1]: 2.57 nM
- human MASP1 IC50 [2]: 6.1 nM
Binder: cyclo([Ahx][4Amb]ICSRS[tBuAla]PPI[Pen]IP) (disulfide 4-12; also: TFA salt) [Example 68: (Ahx)**-(4-(Aminomethyl)benzoic acid)-IC+SRS-((tBu)A)-PPI-(Pen)+-IP**]

- human MASP2 IC50 [1]: 1100 nM
- human MASP1 IC50 [2]: 86 nM
Binder: cyclo([Dab]ICSRS[tBuAla]PPI[Pen]IP) (disulfide 3-11; also: TFA salt) [Example 56: (Dab)**-IC+SRS-((tBu)A)-PPI-(Pen)+-IP**]

- rat MASP1 IC50 [3]: 48.6 nM
- human MASP2 IC50 [1]: 5.7 nM
- human MASP1 IC50 [2]: 11 nM
Binder: cyclo([Ahx][Trx]ICSRS[tBuAla]PPI[Pen]IP) (disulfide 4-12; also: TFA salt) [Example 59: (Ahx)**-(TXA)-IC+SRS-((tBu)A)-PPI-(Pen)+-IP**]

- rat MASP1 IC50 [3]: 85 nM
- rat MASP2 IC50 [4]: 14 nM
- human MASP2 IC50 [1]: 48 nM
- human MASP1 IC50 [2]: 6.3 nM
Binder: cyclo([Ahx]AICSRS[tBuAla]PPI[Pen]I) (disulfide 4-12; also: TFA salt) [Example 72: (Ahx)**-AIC+SRS-((tBu)A)-PPI-(Pen)+-I**]

- rat MASP1 IC50 [3]: 170 nM
- human MASP2 IC50 [1]: 160 nM
- human MASP1 IC50 [2]: 19 nM
Binder: cyclo(AGGICSRSLP[Oic]I[Pen]IP[dD]) (disulfide 5-13; also: TFA salt) [Example 98: A**GGIC+SRSLP-(Oic)-I-(Pen)+-IPd**]

- human MASP2 IC50 [1]: 340 nM
- human MASP1 IC50 [2]: 46 nM
Binder: cyclo([Dap][Dap]ICSRS[tBuAla]PPI[Pen]I) (disulfide 4-12; also: TFA salt) [Example 57: (Dap)**-(Dap)-IC+SRS-((tBu)A)-PPI-(Pen)+-I**]

- rat MASP1 IC50 [3]: 290 nM
- rat MASP2 IC50 [4]: 64 nM
- human MASP2 IC50 [1]: 91 nM
- human MASP1 IC50 [2]: 5.7 nM
Binder: cyclo([Dap][Dap]ICSRSLP[Oic]I[Pen]IP) (disulfide 4-12; also: TFA salt) [Example 89: (Dap)**-(Dap)-IC+SRSLP-(Oic)-I-(Pen)+-IP**]

- rat MASP1 IC50 [3]: 330 nM
- rat MASP2 IC50 [4]: 13 nM
- human MASP2 IC50 [1]: 5.4 nM
- human MASP1 IC50 [2]: 58 nM
B1: Example 60: (Adipic acid)**-IC+SRS-((tBu)A)-PPI-(Pen)+-IPD-(Dap)++-NH2 (peptide)
peptide: Adipoyl-ICSRS[tBuAla]PPI[Pen]IPD[Dap]-NH2
modifications: lactam (positions not given here); disulfide 2-10; not fully specified (bridges); also: TFA salt

- rat MASP1 IC50 [3]: 27 nM
- rat MASP2 IC50 [4]: 1.4 nM
- human MASP2 IC50 [1]: 14 nM
- human MASP1 IC50 [2]: 7.2 nM
Binder: [Ahx]ICSRSLP[Oic]I[Pen]IPE-NH2 (disulfide 3-11; lactam N-14; also: TFA salt) [Example 75: (Ahx)**-IC+SRSLP-(Oic)-I-(Pen)+-IPE++-NH2]

Further lines, the binder ahead of its results:

Binder: cyclo([Ahx]AICSRSLPPICIPD) (disulfide 4-12; also: TFA salt) [Example 45: (Ahx)**-AIC+SRSLPPIC+IPD**]
- human MASP2 IC50 [1]: 74 nM
- human MASP1 IC50 [2]: 92 nM

Binder: GAICSRSLPPICIPD-NH2 (disulfide 4-12; lactam N-15; also: TFA salt) [Example 37: G**AIC+SRSLPPIC+IPD++-NH2]
- human MASP2 IC50 [1]: 140 nM
- human MASP1 IC50 [2]: 16 nM

Binder: AGGICSRSLP[Oic]I[Pen]IPD-NH2 (disulfide 5-13; lactam N-16; also: TFA salt) [Example 42: A**GGIC+SRSLP-(Oic)-I-(Pen)+-IPD++-NH2]
- human MASP2 IC50 [1]: 200 nM
- human MASP1 IC50 [2]: 13 nM

Binder: cyclo([PEG2]AICSRS[tBuAla]PPI[Pen]IPD) (disulfide 4-12; also: TFA salt) [Example 34: (PEG1(10 atoms))**-AIC+SRS-((tBu)A)-PPI-(Pen)+-IPD**]
- human MASP2 IC50 [1]: 98 nM
- human MASP1 IC50 [2]: 11 nM

Binder: cyclo([Ahx]GICSRSLPPICIPD) (disulfide 4-12; also: TFA salt) [Example 13: (Ahx)**-GIC+SRSLPPIC+IPD**]
- human MASP2 IC50 [1]: 130 nM
- human MASP1 IC50 [2]: 140 nM

Binder: [Orn]AICSRS[tBuAla]PPI[NMeC]IPD-NH2 (lactam 1-15; disulfide 4-12; also: TFA salt) [Example 44: (Orn)++-AIC+SRS-((tBu)A)-PPI-((N-Me)C)+-IPD++-NH2]
- human MASP2 IC50 [1]: 230 nM
- human MASP1 IC50 [2]: 4.7 nM

Binder: cyclo([Dap]ICSRS[tBuAla]PPI[Pen]IP) (disulfide 3-11; also: TFA salt) [Example 55: (Dap)**-IC+SRS-((tBu)A)-PPI-(Pen)+-IP**]
- human MASP2 IC50 [1]: 900 nM
- human MASP1 IC50 [2]: 46 nM

Binder: AGAICSRSLP[Oic]I[Pen]IPD-NH2 (disulfide 5-13; lactam N-16; also: TFA salt) [Example 41: A**GAIC+SRSLP-(Oic)-I-(Pen)+-IPD++-NH2]
- human MASP2 IC50 [1]: 190 nM
- human MASP1 IC50 [2]: 5.9 nM

Binder: [Ahx]AICSRSLP[Oic]I[Pen]IPD-NH2 (disulfide 4-12; lactam N-15; also: TFA salt) [Example 43: (Ahx)**AIC+SRSLP-(Oic)-I-(Pen)+-IPD++-NH2]
- human MASP2 IC50 [1]: 120 nM
- human MASP1 IC50 [2]: 6.7 nM

Binder: cyclo(AGGICSRS[tBuAla]PPI[Pen]IPD) (disulfide 5-13; also: TFA salt) [Example 29: A**GGIC+SRS-((tBu)A)-PPI-(Pen)+-IPD**]
- human MASP2 IC50 [1]: 68 nM
- human MASP1 IC50 [2]: 8.6 nM

Binder: cyclo([Ahx]ICSRS[tBuAla]PPI[Pen]IP) (disulfide 3-11; also: TFA salt) [Example 51: (Ahx)**-IC+SRS-((tBu)A)-PPI-(Pen)+-IP**]
- human MASP2 IC50 [1]: 17 nM
- human MASP1 IC50 [2]: 6.3 nM

Binder: cyclo([Ahx]AICSRS[tBuAla]PPI[NMeC]IPD) (disulfide 4-12; also: TFA salt) [Example 32: (Ahx)**-AIC+SRS-((tBu)A)-PPI-((N-Me)C)+-IPD**]
- human MASP2 IC50 [1]: 63.5 nM
- human MASP1 IC50 [2]: 22 nM

Binder: [Ahx]GICSRSLP[Oic]I[Pen]IPD-NH2 (disulfide 4-12; lactam N-15; also: TFA salt) [Example 49: (Ahx)**-GIC+SRSLP-(Oic)-I-(Pen)+-IPD++-NH2]
- human MASP2 IC50 [1]: 140 nM
- human MASP1 IC50 [2]: 19 nM

Binder: cyclo([Ahx]AICSRS[tBuAla]PPICIPD) (disulfide 4-12; also: TFA salt) [Example 46: (Ahx)**-AIC+SRS-((tBu)A)-PPIC+IPD**]
- human MASP2 IC50 [1]: 89 nM
- human MASP1 IC50 [2]: 56 nM

Binder: cyclo([Ahx]AICSRSLP[Oic]ICIP) (disulfide 4-12; also: TFA salt) [Example 25: (Ahx)**-AIC+SRSLP-(Oic)-IC+IP**]
- human MASP2 IC50 [1]: 610 nM
- human MASP1 IC50 [2]: 60 nM

Binder: cyclo([PEG2]GICSRSLPPICIPD) (disulfide 4-12; also: TFA salt) [Example 24: (PEG1(10 atoms))**-GIC+SRSLPPIC+IPD**]
- human MASP2 IC50 [1]: 210 nM
- human MASP1 IC50 [2]: 110 nM

Binder: cyclo([Ahx]AICSRS[tBuAla]PPI[Pen]IPD) (disulfide 4-12; also: TFA salt) [Example 27: (Ahx)**-AIC+SRS-((tBu)A)-PPI-(Pen)+-IPD**]
- human MASP2 IC50 [1]: 37.5 nM
- human MASP1 IC50 [2]: 9.1 nM

Binder: cyclo([GABA]ICSRS[tBuAla]PPI[Pen]IPD) (disulfide 3-11; also: TFA salt) [Example 35: (Gamma-Abu)**-IC+SRS-((tBu)A)-PPI-(Pen)+-IPD**]
- rat MASP1 IC50 [3]: 63 nM
- rat MASP2 IC50 [4]: 24 nM
- human MASP1 IC50 [2]: 4.1 nM

Binder: cyclo([Ahx][Abu]ICSRS[tBuAla]PPI[Pen]IPD) (disulfide 4-12; also: TFA salt) [Example 38: (Ahx)**-(Abu)-IC+SRS-((tBu)A)-PPI-(Pen)+-IPD**]
- human MASP2 IC50 [1]: 44 nM
- human MASP1 IC50 [2]: 20 nM

Binder: cyclo(AGAICSRS[tBuAla]PPI[Pen]IPD) (disulfide 5-13; also: TFA salt) [Example 26: A**GAIC+SRS-((tBu)A)-PPI-(Pen)+-IPD**]
- human MASP2 IC50 [1]: 170 nM
- human MASP1 IC50 [2]: 12 nM

Binder: [Ahx]GICSRS[tBuAla]PPI[Pen]IPD-NH2 (disulfide 4-12; lactam N-15; also: TFA salt) [Example 48: (Ahx)**-GIC+SRS-((tBu)A)-PPI-(Pen)+-IPD++-NH2]
- human MASP2 IC50 [1]: 70 nM
- human MASP1 IC50 [2]: 10 nM

Binder: CAICSRS[tBuAla]PPI[Pen]IPDC-NH2 (disulfide 1-16, 4-12; also: TFA salt) [Example 50: C++AIC+SRS-((tBu)A)-PPI-(Pen)+-IPDC++-NH2]
- human MASP2 IC50 [1]: 210 nM
- human MASP1 IC50 [2]: 13 nM
